Measurements: patent publication US7537932

Biological target: mouse Flt3 receptor on Baflt cells (Ba/F3 cells stably transfected with Flt3 cDNA) (mouse) (UniProt Q00342)
Experiment: cell-based or functional assay

Sequence of UniProt Q00342 (Q00342 28-1000): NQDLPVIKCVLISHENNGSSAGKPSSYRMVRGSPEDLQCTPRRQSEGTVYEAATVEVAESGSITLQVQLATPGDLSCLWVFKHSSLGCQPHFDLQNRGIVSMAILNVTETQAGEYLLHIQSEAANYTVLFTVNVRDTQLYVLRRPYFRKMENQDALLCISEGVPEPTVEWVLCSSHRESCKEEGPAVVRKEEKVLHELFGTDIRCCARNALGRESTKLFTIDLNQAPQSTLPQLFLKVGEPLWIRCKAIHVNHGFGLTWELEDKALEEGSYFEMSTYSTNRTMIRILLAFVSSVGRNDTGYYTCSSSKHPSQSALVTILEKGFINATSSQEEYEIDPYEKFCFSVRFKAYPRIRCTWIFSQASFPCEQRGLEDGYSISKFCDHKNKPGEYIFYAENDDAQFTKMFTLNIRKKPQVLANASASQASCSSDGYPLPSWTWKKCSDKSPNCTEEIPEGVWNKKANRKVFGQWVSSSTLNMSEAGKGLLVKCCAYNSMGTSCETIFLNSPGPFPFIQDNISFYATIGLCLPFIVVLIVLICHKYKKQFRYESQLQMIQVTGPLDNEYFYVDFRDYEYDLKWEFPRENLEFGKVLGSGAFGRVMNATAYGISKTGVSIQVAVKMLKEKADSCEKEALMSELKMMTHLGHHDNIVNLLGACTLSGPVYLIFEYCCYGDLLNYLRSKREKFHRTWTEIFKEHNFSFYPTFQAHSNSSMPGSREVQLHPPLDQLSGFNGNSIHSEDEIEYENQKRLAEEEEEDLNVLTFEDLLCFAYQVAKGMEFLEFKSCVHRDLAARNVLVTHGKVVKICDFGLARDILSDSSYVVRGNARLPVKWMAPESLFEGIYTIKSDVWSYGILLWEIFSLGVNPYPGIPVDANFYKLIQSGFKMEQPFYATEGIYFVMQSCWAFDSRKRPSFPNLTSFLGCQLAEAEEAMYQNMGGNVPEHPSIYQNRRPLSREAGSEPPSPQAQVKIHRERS

Substance: purified native mouse Flt3 ligand (naturally occurring soluble form from TA4 thymic stromal cell conditioned medium) (from UniProt P49772 27-189)
- specific activity in the bioassay (MTT assay, Baflt minus Ba/F3): 3e+06 units/mg
- specific activity on the Baf assay (MTT survival assay, Baflt minus Baf signal) (Units per milligram): 1e+07
